# Laboratory results from patent US20190282673A1, “STAPHTAME ACTIVITY ON BIOFILMS” (priority 2016, published 2019).
# Values joined by “and” are separate entries in the source; they are usually repeats but may differ in a detail not shown here. Identical values can stand only once. Like-named read-outs stand apart in the source and are kept apart here.
# B1: P128: anti-staphylococcal chimeric protein: phage tail associated muralytic enzyme (TAME) cell wall-degrading region plus staphylococcus-specific binding region; SEQ ID NO: 1 (protein)
# chain: MSLDSLKKYNGKLPKHDPSFVQPGNRHYKYQCTWYAYNRRGQLGIPVPLWGDAADWIGGAKGAGYGVGRTPKQGACVIWQRGVQGGSPQYGHVAFVEKVLDGGKKIFISEHNYATPNGYGTRTIDMSSAIGKNAQFIYDKKLETPNTGWKTNKYGTLYKSESASFTPNTDIITRTTGPFRSMPQSGVLKAGQTIHYDEVMKQDGHVWVGYTGNSGQRIYLPVRTWNKSTNTLGVLWGTIK
# modifications: P128 chimera
# How the values were obtained:
# [1] = tested on: S. aureus biofilms; assay: MBIC and checkerboard synergy on preformed biofilm (MTT assay); assay type: cell-based, Staphylococcus aureus; conditions: for MIC (drug alone) on biofilm: S. aureus MW2 72 h preformed biofilm, 6 hr treatment; for Activity on biofilms: S. aureus MW2 biofilm, drug alone
# Protocol: […] LB supplemented with 50 μg/mL CaCl2 was used for daptomycin treatment wells. The contents of the well was aspirated out and discarded. The biofilm adhered to the wells was quantified by MTT assay as described above. The MBIC was defined as the minimum concentration of P128 or the drug showing no colour development. […] In each experiment, in addition to the combination MBIC, the MBIC of each drug was also determined individually. The fractional MBIC concentrations were determined by MTT dye method as described above. The FICI and synergy was also calculated in a similar manner.
# The ability of P128 to inhibit growth of S. aureus in a preformed biofilm was measured by determining minimum biofilm inhibition concentration (MBIC), defined as minimum concentration showing growth inhibition in a MTT based assay. […] 11:226.
# The assay was optimized using the standard S. aureus strain ATCC 29213. An overnight-grown culture of the strain was diluted 1:40 in LB broth 200 μL of diluted culture was aliquoted into microtiter plate wells. Microplates were placed in a shaker-incubator set to 37° C., and 100 rpm for 24 h followed by 48 h incubation under static conditions at 37° C. The contents of one set of four wells were aspirated and discarded. Wells were washed twice with 1×PBS and the presence of biofilm in the wells at the end of this 72-hour period was determined by metabolic dye-reduction assay method using MTT (3-(4, 5-dimethylthiazol-5-diphenyltetrazolium bromide; Himedia). In this assay, live cells reduce the dye leading to color formation which can be read at 570 nm, and the intensity of color can be correlated to number of live cells. 100 μL of PBS was added to the wells along with 10 μL of MTT solution. The plate was incubated for 2 h in the dark. After this, 110 μL of solvent solution solubilizing agent was added and the plate was incubated for 15 minutes at ambient temperature with gentle agitation. The absorbance was read at 570 nm in a microplate reader. Another set of four wells was processed for harvesting the biofilm and determination of CFUs present by plating on solid media. For biofilm inhibitory studies, the wells were washed twice with 1×PBS and challenged with various concentrations of P128 or other antibiotic drugs and incubated for 24 h at 37° C. The contents of the well was aspirated out and discarded. The biofilm adhered to the wells was quantified by MTT assay as described above. The MBIC was defined as the minimum concentration of P128 or the drug showing no colour development. […] In each experiment, in addition to the combination MBIC, the MBIC of each drug was also determined individually. The fractional MBIC concentrations were determined by MTT dye method as described above. The FICI and synergy was also calculated in a similar manner.
# In order to determine whether P128 could synergize with known anti-Staphylococcus drugs to inhibit S. aureus in biofilms. […] The assays were performed in a 96 well checkerboard format using various concentrations of P128 and one of the antibiotics.
# [2] = tested on: S. aureus; assay: MIC and checkerboard synergy (broth microdilution) on planktonic cells; assay type: cell-based, Staphylococcus aureus; conditions: for MIC: Staphylococcus aureus
# Protocol: MIC was determined using a modified Clinical and Laboratory Standards Institute (CLSI) broth microdilution procedure described earlier in Vipra, et al. (2012) “Antistaphylococcal activity of bacteriophage derived chimeric protein P128” BMC Microbiol. 12:41-50; and Clinical and Laboratory Standards Institute (2012) “Methods for Dilution Antimicrobial Susceptibility Tests for Bacteria That Grow Aerobically; Approved Standard” CLSI document M07-A9.9 ed. Wayne, Pa. USA. In order to determine effects of combinations of P128 with antibiotics, combinations of various dilutions of P128 and a second drug were tested for growth inhibition using a microdilution checkerboard technique. See Lu, et al. (2013) “In vitro activity of sodium new houttuyfonate alone and in combination with oxacillin or netilmicin against methicillin-resistant Staphylococcus aureus” PLoS One 8:e68053. Briefly, S. aureus culture at a final cell number of 5×10^5 CFU/mL was added to wells of 96-well microtiter plates (precoated with 0.5% BSA), containing two-fold dilutions of P128 and the second drug in cation adjusted Mueller Hinton Broth (CAMHB). The plates were incubated at 37° C. for 24 h and the individual MICs and the combination MICs were read. The fractional inhibitory concentration index (FICI) was determined using the following equation: FICI=(MIC of drug A in the combination/MIC of drug A alone)+(MIC of drug B in the combination/MIC of drug B alone). The combination was considered to be synergistic when the FICI was ≤0.5; additive when FICI was 0.5-1.0; indifferent when FICI was 1-4 and antagonistic when FICI≥4. The experiments were performed in triplicate and repeated twice.
# In order to find out whether P128 can act in a synergistic manner with commonly used antibiotics, MIC based growth inhibition assays were performed. MIC based synergy was studied by checkerboard method by determining the FIC index using the method of Lu, et at (2013) “In vitro activity of sodium new houttuyfonate alone and in combination with oxacillin or netilmicin against methicillin-resistant Staphylococcus aureus” PLoS One 8:e68053. […] Similarly.
# Bacterial cultures at a final cell number of 5×10^5 CFU/mL was added to wells of 96-well microtiter plates (precoated with 0.5% BSA), containing two-fold dilutions of P128 and the second drug in cation adjusted Mueller Hinton Broth (CAMHB). The plates were incubated at 37° C. for 24 h and the individual MICs and the combination MICs were read. The fractional inhibitory concentration index (FICI) was determined using the following equation: FICI=(MIC of drug A in the combination/MIC of drug A alone)+(MIC of drug B in the combination/MIC of drug B alone). The combination was considered to be synergistic when the FICI was ≤0.5; additive when FICI was 0.5-1.0; indifferent when FICI was 1-4 and antagonistic when FICI≥4.
# [3] = Table 4, S. aureus ATCC 29213 preformed biofilm, 6 h
# [4] = Table 4, S. aureus ATCC 29213 preformed biofilm, 24 h
# [5] = Table 4, S. aureus B9241 preformed biofilm, 6 h
# [6] = Table 4, S. aureus B9241 preformed biofilm, 24 h
# [7] = Table 4, S. aureus BK1 preformed biofilm, 6 h
# [8] = Table 4, S. aureus BK1 preformed biofilm, 24 h
molecule,measurement,setting,value
"CCCCCCCCCC(=O)N[C@@H](Cc1c[nH]c2ccccc12)C(=O)N[C@H](CC(N)=O)C(=O)N[C@@H](CC(=O)O)C(=O)N[C@@H]1C(=O)NCC(=O)N[C@@H](CCCN)C(=O)N[C@@H](CC(=O)O)C(=O)N[C@H](C)C(=O)N[C@@H](CC(=O)O)C(=O)NCC(=O)N[C@H](CO)C(=O)N[C@@H]([C@H](C)CC(=O)O)C(=O)N[C@@H](CC(=O)c2ccccc2N)C(=O)O[C@@H]1C [Daptomycin, daptomycin]",MIC (drug alone) on biofilm,[1],31.2 µg/mL
same,Activity on biofilms,[1],relatively better activity
"CC(=O)NC[C@H]1CN(c2ccc(N3CCOCC3)c(F)c2)C(=O)O1 [Linezolid, linezolid]",MIC (drug alone) on biofilm,[1],>500 µg/mL
same,Activity on biofilms,[1],poorly effective
same,MIC,"[2]; 24 h, LRSA strain B9456, read-out: MIC (drug alone)",> 32 µg/mL
same,MIC,"[2]; 24 h, LRSA strain B9457, read-out: MIC (drug alone)",8 µg/mL
"CN[C@H](CC(C)C)C(=O)N[C@H]1C(=O)N[C@@H](CC(N)=O)C(=O)N[C@H]2C(=O)N[C@H]3C(=O)N[C@H](C(=O)N[C@H](C(=O)O)c4cc(O)cc(O)c4-c4cc3ccc4O)[C@H](O)c3ccc(c(Cl)c3)Oc3cc2cc(c3O[C@@H]2O[C@H](CO)[C@@H](O)[C@H](O)[C@H]2O[C@H]2C[C@](C)(N)[C@H](O)[C@H](C)O2)Oc2ccc(cc2Cl)[C@H]1O [Vancomycin, vancomycin]",MIC (drug alone) on biofilm,[1],250 µg/mL
same,Activity on biofilms,[1],poorly effective
same,MBIC (individual),[1]; [3],7.8 µg/mL
same,MBIC (individual),[1]; [4],218.75 µg/mL
same,MBIC (individual),[1]; [5],31.25 µg/mL
same,MBIC (individual),[1]; [6],125 µg/mL
same,MBIC (individual),[1]; [7],31.25 µg/mL
same,MBIC (individual),[1]; [8],250 µg/mL
same,MIC,"[2]; 24 h, read-out: MIC (drug alone), S. aureus B9241 (gentamycin and ciprofloxacin resistant)",1 µg/mL
same,MIC,"[2]; ATCC29213, read-out: MIC over the strains, ATCC29213, BK1 and B9241",1 µg/mL
same,MIC,"[2]; ATCC 29213 / MSSA, 24 h, read-out: MIC (drug alone), S. aureus ATCC 29213 (MSSA)",1 µg/mL
same,MIC,"[2]; MRSA, 24 h, read-out: MIC (drug alone), S. aureus BK1 (MRSA, ciprofloxacin resistant)",1 µg/mL
same,MIC,"[2]; VRSA, 24 h, read-out: MIC (drug alone), VRSA strain VRS 1",32 µg/mL
same,MIC,"[2]; VRSA, 24 h, read-out: MIC (drug alone), VRSA strain VRS 2",32 µg/mL
same,MIC,"[2]; VRSA, 24 h, read-out: MIC (drug alone), VRSA strain VRS 3a",32 µg/mL
same,MIC,"[2]; VRSA, 24 h, read-out: MIC (drug alone), VRSA strain VRS 3b",32 µg/mL
same,MIC,"[2]; VRSA, 24 h, read-out: MIC (drug alone), VRSA strain VRS 4",32 µg/mL
same,MIC,"[2]; VRSA, 24 h, read-out: MIC (drug alone), VRSA strain VRS 10",16 µg/mL
B1,MBIC fold higher than planktonic MIC,"[1]; 2 h assay, sensitive and resistant strains of S. aureus",1-4 fold
same,MBIC,"[1]; S. aureus 8325-4 biofilm, 2 h",7.8 µg/mL
same,MBIC,"[1]; S. aureus 8325-4 biofilm, 4 h",15.6 µg/mL
same,MBIC,"[1]; S. aureus 8325-4 biofilm, 6 h",15.6 µg/mL
same,MBIC,"[1]; S. aureus 8325-4 biofilm, 8 h",31.25 µg/mL
same,MBIC,"[1]; S. aureus 8325-4 biofilm, 24 h",1000 µg/mL
same,MBIC,"[1]; S. aureus ATCC 29213 biofilm, 2 h",3.9 µg/mL
same,MBIC,"[1]; S. aureus ATCC 29213 biofilm, 4 h",15.6 µg/mL
same,MBIC,"[1]; S. aureus ATCC 29213 biofilm, 6 h",15.6 µg/mL
same,MBIC,"[1]; S. aureus ATCC 29213 biofilm, 8 h",15.6 µg/mL
same,MBIC,"[1]; S. aureus ATCC 29213 biofilm, 24 h",250 µg/mL
same,MBIC,"[1]; S. aureus B9241 biofilm, 2 h",15.6 µg/mL
same,MBIC,"[1]; S. aureus B9241 biofilm, 4 h",125 µg/mL
same,MBIC,"[1]; S. aureus B9241 biofilm, 6 h",125 µg/mL
same,MBIC,"[1]; S. aureus B9241 biofilm, 8 h",125 µg/mL
same,MBIC,"[1]; S. aureus B9241 biofilm, 24 h",>1000 µg/mL
same,MBIC,"[1]; S. aureus B9356 biofilm, 2 h",7.8 µg/mL
same,MBIC,"[1]; S. aureus B9356 biofilm, 4 h",15.6 µg/mL
same,MBIC,"[1]; S. aureus B9356 biofilm, 6 h",31.25 µg/mL
same,MBIC,"[1]; S. aureus B9356 biofilm, 8 h",62 µg/mL
same,MBIC,"[1]; S. aureus B9356 biofilm, 24 h",>1000 µg/mL
same,MBIC,"[1]; S. aureus BK1 biofilm, 2 h",15.6 µg/mL
same,MBIC,"[1]; S. aureus BK1 biofilm, 4 h",31.25 µg/mL
same,MBIC,"[1]; S. aureus BK1 biofilm, 6 h",31.25 µg/mL
same,MBIC,"[1]; S. aureus BK1 biofilm, 8 h",31.25 µg/mL
same,MBIC,"[1]; S. aureus BK1 biofilm, 24 h",1000 µg/mL
same,MIC (drug alone) on biofilm,[1],6.25 µg/mL
same,MBIC (individual),[1]; [3],6.04 µg/mL
same,MBIC (individual),[1]; [4],200 µg/mL
same,MBIC (individual),[1]; [5],105.15 µg/mL
same,MBIC (individual),[1]; [6],>1000 µg/mL
same,MBIC (individual),[1]; [7],28.95 µg/mL
same,MBIC (individual),[1]; [8],400 µg/mL
same,MIC over the strains,"[2]; ATCC29213, BK1 and B9241",4 to 8 µg/mL
same,MIC (drug alone),[2]; LRSA strain B9456,2 µg/mL
same,MIC (drug alone),[2]; LRSA strain B9457,1 µg/mL
same,MIC (drug alone),[2]; MRSA strain BK22,0.45 µg/mL
same,MIC (drug alone),[2]; S. aureus ATCC 29213 (MSSA),4 µg/mL
same,MIC (drug alone),[2]; S. aureus B9241 (gentamycin and ciprofloxacin resistant),8 µg/mL
same,MIC (drug alone),"[2]; S. aureus BK1 (MRSA, ciprofloxacin resistant)",4 µg/mL
same,MIC (drug alone),[2]; S. aureus BK18,2 µg/mL and 4 µg/mL
same,MIC (drug alone),[2]; VRSA strain VRS 1,1.9 µg/mL
same,MIC (drug alone),[2]; VRSA strain VRS 2,1.9 µg/mL
same,MIC (drug alone),[2]; VRSA strain VRS 3a,1.9 µg/mL
same,MIC (drug alone),[2]; VRSA strain VRS 3b,0.97 µg/mL
same,MIC (drug alone),[2]; VRSA strain VRS 4,1.9 µg/mL
same,MIC (drug alone),[2]; VRSA strain VRS 10,3.9 µg/mL
